{"source": "patent US20110275559A1", "about": "“Long-Acting Y2 and/or Y4 Receptor Agonists” (Novo Nordisk A/S, priority 2008, published 2011)", "molecules": {"B1": {"name": "N-alfa-[2-(2-{2-[2-(2-{2-[(S)-4-Carboxy-4-({trans-4-[(19-carboxynonadecanoylamino)methyl]cyclohexanecarbonyl}amino)butyrylamino]-ethoxy}ethoxy)acetylamino]ethox … (peptide)", "peptide": "PLEPVYPGDNATPEQLAQYAADLRRYINLLTRPRY", "modifications": "not fully specified (N-terminus); printed as N-alfa-[2-(2-{2-[2-(2-{2-[(S)-4-Carboxy-4-({trans-4-[(19-carboxynonadecanoylamino)methyl]cyclohexanecarbonyl}amino)butyrylamino]-ethoxy}ethoxy)acetylamino]ethoxy}ethoxy)acetyl][Leu17,Leu30]hPP2-36; ends and bridges not checked"}}, "key": {"[1]": {"assay": "Mini-pig PK assay (plasma half-life)", "settings": "Göttingen, minipig, iv", "procedure": "(§1) The mini-pigs had two central venous catheters inserted which were used for intra venous (i.v.) dosing and bloodsampling. Compound was dissolved in 50 mM K2HPO4, 0.05% tween 80, pH=8.0 to a concentration of 180 nmol/ml. The pigs were dosed with 6 nmol compound/kg body weight. […] The blood samples were collected into test tubes containing EDTA buffer for stabilization and kept on ice for max. 20 minutes before centrifugation. The centrifugation procedure to separate plasma was; 4° C., 3000 rpm for 10 minutes. Plasma were collected and immediately transferred to Micronic tubes stored at −20° C. until assayed.\nAn additional mini-pig PK assay was used for measuring PK of the compounds of the invention. […] The animals had two central venous catheters inserted which were used for intra venous (i.v.) dosing and blood sampling. Compounds were dissolved in 10 mM Na2HPO4, 150 mM NaCl, 0.01% tween 80, pH=4.0 to concentrations in the range of 40 nmol/ml to 200 nmol/ml. The mini-pigs were dosed i.v. with 10 nmol compound/kg body weight, occasionally other doses such as 4 nmol/kg, 30 nmol/kg or 50 nmol/kg were administered. Each compound was dosed to 3 or 4 mini-pigs, and two compounds may be given simultaneously to the same animal. Blood were sampled pre-dose and 12 times during the first 10 hours post-dose. Blood were furthermore sampled once daily until 13 days post dosing. The blood samples were collected into test tubes containing EDTA buffer, trasylol and Val-Pyr for stabilization and kept on ice for max. 20 minutes. Samples were centrifuged at 4° C., 2000G for 10 minutes to separate plasma. Plasma were collected and immediately transferred to Micronic tubes stored at −20° C. until assayed.\nPlasma samples were analysed by LC-MS on an LTQ-Orbitrap (ThermoFisher Scientific, Bremen) to which Accela HPLC pumps and an autosampler were connected (both from ThermoFisher). […] HPLC was performed on a Jupiter Proteo column (4μ) 90A (50×2.0 mm ID). […] The flow rate was 0.3 ml/min. For analysis of plasma samples, 30 μl plasma was precipitated with 90 μl ethanol. […] The heptane phase was removed after 5 min and the remaining solution was analysed by LC-MS as described above. For construction of plasma standards, compound was spiked to plasma (minipig) at the following concentrations: 1 nM, 2 nM, 5 nM, 10 nM, 20 nM, 50 nM, 100 nM, 200 nM. The plasma standards were treated as the samples. The lower limit of quantification was estimated to 2 nM.\nNon-compartmental analysis (NCA): Plasma concentration-time profiles were analyzed by non-compartmental pharmacokinetics analysis (NCA) using WinNonlin Professional 5.0 (Pharsight Inc., Mountain View, Calif., USA). NCA was performed using the individual plasma concentration-time profiles from each animal.\nFor determination of plasma concentration of the PYY and PP peptide derivative or analogues thereof the following Methods 1-4 were used.\nas §1, with “bloodsampling. The compound” for “bloodsampling. Compound”, “to an appropriate” for “to a”, “concentration (e.g. 25-500 nmol/mL).” for “concentration of 180 nmol/ml.”, “dosed intravenously (i.v.) or subcutaneously (s.c.)” for “dosed”, “with between 1 and 30” for “with 6”, “buffer (with Aprotinin 15000 KIE/mL and Val-Pyr 0.30 mM)” for “buffer”\nAn additional mini-pig PK assay was used for measuring PK of the compounds of the invention. […] The animals had two central venous catheters inserted which were used for intra venous (i.v.) dosing and blood sampling."}, "[2]": {"target": "T1, Y2 receptor (UniProt P49146 1-381, limits assumed)", "T1 sequence (looked up)": "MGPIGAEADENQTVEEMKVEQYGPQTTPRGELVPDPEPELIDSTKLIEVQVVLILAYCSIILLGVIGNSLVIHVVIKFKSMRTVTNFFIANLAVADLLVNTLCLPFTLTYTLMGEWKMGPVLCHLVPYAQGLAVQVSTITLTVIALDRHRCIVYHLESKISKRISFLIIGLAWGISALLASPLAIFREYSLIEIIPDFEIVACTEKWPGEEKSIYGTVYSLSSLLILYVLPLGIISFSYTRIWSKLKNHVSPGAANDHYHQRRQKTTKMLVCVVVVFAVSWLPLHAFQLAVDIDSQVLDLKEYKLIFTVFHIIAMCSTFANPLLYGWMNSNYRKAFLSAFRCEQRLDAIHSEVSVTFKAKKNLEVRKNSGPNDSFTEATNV", "assay": "cell-based or functional assay"}, "[3]": {"target": "Y4 receptor (UniProt P50391 1-375, limits assumed)", "sequence (P50391 whole entry)": "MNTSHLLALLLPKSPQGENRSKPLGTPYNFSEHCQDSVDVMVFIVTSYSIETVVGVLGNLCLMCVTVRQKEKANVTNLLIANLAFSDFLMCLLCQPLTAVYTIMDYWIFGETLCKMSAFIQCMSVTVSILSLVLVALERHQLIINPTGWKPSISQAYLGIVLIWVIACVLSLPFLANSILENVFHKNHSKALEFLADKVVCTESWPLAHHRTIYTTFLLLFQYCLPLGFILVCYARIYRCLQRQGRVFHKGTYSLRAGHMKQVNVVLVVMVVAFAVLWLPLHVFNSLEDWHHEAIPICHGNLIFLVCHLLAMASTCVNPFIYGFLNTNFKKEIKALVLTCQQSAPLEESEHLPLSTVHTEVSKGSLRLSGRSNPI", "assay": "cell-based or functional assay"}}, "note": "*1 amine or outer side, *2 acyl side, *3 side chain or, on linkers, in order; H or OH if unused. Where a SMILES comes first, the peptide text is derived from it. Where no end group is shown, it is not given here. Side-chain parts run from the residue outwards. The star is where a group is joined. C20 diacid = O=C(O)CCCCCCCCCCCCCCCCCCC(=O)*; C18 diacid = O=C(O)CCCCCCCCCCCCCCCCC(=O)*; γGlu = O=C(O)[C@H](CCC(=O)[*:2])N[*:1]; Trx = NC[C@H]1CC[C@H](C(=O)O)CC1; AEEA = NCCOCCOCC(=O)O", "data": [{"molecule": "CC[C@H](C)[C@H](NC(=O)[C@H](Cc1ccc(O)cc1)NC(=O)[C@H](CCCNC(=N)N)NC(=O)[C@H](CCCCNC(=O)COCCOCCNC(=O)COCCOCCNC(=O)CC[C@H](NC(=O)[C@H]1CC[C@H](CNC(=O)CCCCCCCCCCCCCCCCCCC(=O)O)CC1)C(=O)O)NC(=O)[C@H](CC(C)C)NC(=O)[C@H](CC(=O)O)NC(=O)[C@H](C)NC(=O)[C@H](C)NC(=O)[C@H](Cc1ccc(O)cc1)NC(=O)[C@H](CCC(N)=O)NC(=O)[C@H](C)NC(=O)[C@H](CC(C)C)NC(=O)[C@H](CCC(N)=O)NC(=O)[C@H](CCC(=O)O)NC(=O)[C@@H]1CCCN1C(=O)[C@@H](NC(=O)[C@H](C)NC(=O)[C@H](CC(N)=O)NC(=O)[C@H](CC(=O)O)NC(=O)CNC(=O)[C@@H]1CCCN1C(=O)[C@H](Cc1ccc(O)cc1)NC(=O)[C@@H](NC(=O)[C@@H]1CCCN1C(=O)[C@H](CCC(=O)O)NC(=O)[C@H](CC(C)C)NC(=O)[C@@H]1CCCN1C(=O)[C@H](C)N)C(C)C)[C@@H](C)O)C(=O)N[C@@H](CC(N)=O)C(=O)N[C@@H](CC(C)C)C(=O)N[C@@H](CC(C)C)C(=O)N[C@H](C(=O)N[C@@H](CCCNC(=N)N)C(=O)N1CCC[C@H]1C(=O)N[C@@H](CCCNC(=N)N)C(=O)N[C@@H](Cc1ccc(O)cc1)C(N)=O)[C@@H](C)O", "note": "[SEQ ID NO: 71, N-epsilon25-[2-(2-{2-[2-(2-{2-[(S)-4-Carboxy-4-({trans-4-[(19-carboxynonadecanoylamino)methyl]cyclohexanecarbonyl}amino)butyrylamino]-ethoxy}ethoxy)acetylamino]ethoxy}ethoxy)acetyl][Leu17,Lys25,Leu30]hPP1-36] (H-APLEPVYPGDNATPEQLAQYAADLK([AEEA-AEEA-γGlu-Trx-C20 diacid])RYINLLTRPRY-NH2)", "values": [{"measurement": "half-life", "setting": "[1]; in vivo, 13 nmol/kg", "result": 13, "unit": "h"}]}, {"molecule": "CC[C@H](C)[C@H](NC(=O)[C@H](Cc1ccc(O)cc1)NC(=O)[C@H](CCCNC(=N)N)NC(=O)[C@H](CCCNC(=N)N)NC(=O)[C@H](CC(C)C)NC(=O)[C@H](CC(=O)O)NC(=O)[C@H](C)NC(=O)[C@H](C)NC(=O)[C@H](Cc1ccc(O)cc1)NC(=O)[C@H](CCC(N)=O)NC(=O)[C@H](C)NC(=O)[C@H](CC(C)C)NC(=O)[C@H](CCC(N)=O)NC(=O)[C@H](CCCCNC(=O)COCCOCCNC(=O)COCCOCCNC(=O)CC[C@H](NC(=O)[C@H]1CC[C@H](CNC(=O)CCCCCCCCCCCCCCCCCCC(=O)O)CC1)C(=O)O)NC(=O)[C@@H]1CCCN1C(=O)[C@@H](NC(=O)[C@H](C)NC(=O)[C@H](CC(N)=O)NC(=O)[C@H](CC(=O)O)NC(=O)CNC(=O)[C@@H]1CCCN1C(=O)[C@H](Cc1ccc(O)cc1)NC(=O)[C@@H](NC(=O)[C@@H]1CCCN1C(=O)[C@H](CCC(=O)O)NC(=O)[C@H](CC(C)C)NC(=O)[C@@H]1CCCN1C(=O)[C@H](C)N)C(C)C)[C@@H](C)O)C(=O)N[C@@H](CC(N)=O)C(=O)N[C@@H](CC(C)C)C(=O)N[C@@H](CC(C)C)C(=O)N[C@H](C(=O)N[C@@H](CCCNC(=N)N)C(=O)N1CCC[C@H]1C(=O)N[C@@H](CCCNC(=N)N)C(=O)N[C@@H](Cc1ccc(O)cc1)C(N)=O)[C@@H](C)O", "note": "[SEQ ID NO: 72, N-epsilon15-[2-(2-{2-[2-(2-{2-[(S)-4-Carboxy-4-({trans-4-[(19-carboxynonadecanoylamino)methyl]cyclohexanecarbonyl}amino)butyrylamino]-ethoxy}ethoxy)acetylamino]ethoxy}ethoxy)acetyl][Leu17,Lys15,Leu30]hPP1-36] (H-APLEPVYPGDNATPK([AEEA-AEEA-γGlu-Trx-C20 diacid])QLAQYAADLRRYINLLTRPRY-NH2)", "values": [{"measurement": "half-life", "setting": "[1]; in vivo, 8 nmol/kg", "result": 14, "unit": "h"}]}, {"molecule": "CC[C@H](C)[C@H](NC(=O)[C@H](Cc1ccc(O)cc1)NC(=O)[C@H](CCCNC(=N)N)NC(=O)[C@H](CCCNC(=N)N)NC(=O)[C@H](CC(C)C)NC(=O)[C@H](CC(=O)O)NC(=O)[C@H](C)NC(=O)[C@H](C)NC(=O)[C@H](Cc1ccc(O)cc1)NC(=O)[C@H](CCC(N)=O)NC(=O)[C@H](C)NC(=O)[C@H](CC(C)C)NC(=O)[C@H](CCC(N)=O)NC(=O)[C@H](CCC(=O)O)NC(=O)[C@@H]1CCCN1C(=O)[C@H](CCCCNC(=O)COCCOCCNC(=O)COCCOCCNC(=O)CC[C@H](NC(=O)[C@H]1CC[C@H](CNC(=O)CCCCCCCCCCCCCCCCCCC(=O)O)CC1)C(=O)O)NC(=O)[C@H](C)NC(=O)[C@H](CC(N)=O)NC(=O)[C@H](CC(=O)O)NC(=O)CNC(=O)[C@@H]1CCCN1C(=O)[C@H](Cc1ccc(O)cc1)NC(=O)[C@@H](NC(=O)[C@@H]1CCCN1C(=O)[C@H](CCC(=O)O)NC(=O)[C@H](CC(C)C)NC(=O)[C@@H]1CCCN1C(=O)[C@H](C)N)C(C)C)C(=O)N[C@@H](CC(N)=O)C(=O)N[C@@H](CC(C)C)C(=O)N[C@@H](CC(C)C)C(=O)N[C@H](C(=O)N[C@@H](CCCNC(=N)N)C(=O)N[C@@H](CCC(N)=O)C(=O)N[C@@H](CCCNC(=N)N)C(=O)N[C@@H](Cc1ccc(O)cc1)C(=O)O)[C@@H](C)O", "note": "[SEQ ID NO: 74, N-epsilon13-[2-(2-{2-[2-(2-{2-[(S)-4-Carboxy-4-({trans-4-[(19-carboxynonadecanoylamino)methyl]cyclohexanecarbonyl}amino)butyrylamino]-ethoxy}ethoxy)acetylamino]ethoxy}ethoxy)acetyl][Leu17,Lys13,Gln34]hPP1-36 acid] (H-APLEPVYPGDNAK([AEEA-AEEA-γGlu-Trx-C20 diacid])PEQLAQYAADLRRYINLLTRQRY-OH; N-terminus assumed)", "values": [{"measurement": "half-life", "setting": "[1]; 16 nmol/kg", "result": 8, "unit": "h"}]}, {"molecule": "{C18 diacid-γGlu-AEEA-AEEA}-PLEPVYPGDNATPEQLAQYAADLRRYINLLTRPRY (ends and bridges not checked)", "values": [{"measurement": "Y2 cAMP EC50", "setting": "[2]", "result": "> 1000", "unit": "nM"}]}, {"molecule": "PLEPVYPGK([AEEA-AEEA-γGlu-Trx-C20 diacid])NATPEQLAQYAADLRRYINLLTRQRY (ends and bridges not checked)", "values": [{"measurement": "Y2 cAMP EC50", "setting": "[2]", "result": 25, "unit": "nM"}]}, {"molecule": "APLEPVYPGDNAK([AEEA-AEEA-γGlu-C18 diacid])PEQMAQYAADLRRYINMLTRPRY (ends and bridges not checked)", "note": "[N-epsilon13-[2-(2-{2-[2-(2-{2-[(S)-4-Carboxy-4-(17-carboxyheptadecanoylamino)butyrylamino]ethoxy}ethoxy)acetylamino]-ethoxy}ethoxy)acetyl][Lys13]hPP(1-36) (as …, listing 1 of 2 here]", "values": [{"measurement": "Y4 cAMP EC50", "setting": "[3]", "result": 2, "unit": "nM"}]}, {"molecule": "B1", "values": [{"measurement": "Y2 cAMP EC50", "setting": "[2]", "result": "> 1000", "unit": "nM"}]}, {"molecule": "APLEPVYPGDNAK([AEEA-AEEA-γGlu-C18 diacid])PEQMAQYAADLRRYINMLTRPRY (ends and bridges not checked)", "note": "[N-epsilon13-[2-(2-{2-[2-(2-{2-[(S)-4-Carboxy-4-(17-carboxyheptadecanoylamino)butyrylamino]ethoxy}ethoxy)acetylamino]-ethoxy}ethoxy)acetyl][Lys13]hPP(1-36) (as …, listing 2 of 2 here]", "values": [{"measurement": "Y4 cAMP EC50", "setting": "[3]", "result": 4, "unit": "nM"}]}]}
